Data as given in the nanobody polyreactivity screen of Harvey et al. (2022).

Experiment: yeast display, Sf9 membrane polyspecificity reagent, FACS + sequencing; frameworks hold sequencing errors
Outline: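 Using colony PCR, genes from sorted yeast display clones were amplified, then sequenced on MiSeq at 2 × 250 and filtered by CDR length. The clones had been stained with 10% biotinylated, detergent-solubilized Sf9 membrane reagent for 1 hour at 4 °C and sorted by FACS into low and high (top ~1%) gates on anti-HA and streptavidin fluorescence. Polyreactivity labels come from the gate of origin.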

## QVQLVESGGGLVQAGGSLRLICAASGFTLADNGMGWYRQAPGKERELVATISGGGSTNYADSVKGRFTISRDNAKNTVYLQMISLKPEDTAVYYCAKEGRYSWYTLSEYDYWGQGTQVTVSS
  polyreactivity (PSR sort gate): low polyreactivity

## QVQLVESGGGLVQAGGSLRLSCDASGLTIYGYAIGSYRQAPGKERELVAAITSGDSTYYADSVKGRFTISRDTAKNTVYFQMNSLKPDDTAVYYCAAVGGYPRYGYWGQGTQVTVSS
  polyreactivity (PSR sort gate): high polyreactivity

## QVQLVESGGGLVQAGGSLRLSCAASGFIFYYYDMGWYRQAPGKERELVAAITYDGGSTYYADSVKGRFTISRDNAKNTVYLQMNSLKPEDTAVYYCNAVYGQYYDYWGQGTQVTVSS
  polyreactivity (PSR sort gate): low polyreactivity

## QVQLVESGGGLVQAGGSLRLSCAASGRIFPLYAMGWYRQAPGKERELDAAISKRDGSTSYADSVKGRFTISRDNAKNTVYLQMNSLKPVDTAVYYCNARNHVQVLFRRDYWGQGTQVTVSS
  polyreactivity (PSR sort gate): low polyreactivity

## QVQLVESVGGLVQAGGSLRLSCAASGSTFAGYAMGWYRQAPGKERELVAAISGGRTYYADSVKGRFTISRDNAKNTVYLQMNSLQPEDTAVYYCAKRYFYYTAYNAYGYWGQGTQVTVSS
  polyreactivity (PSR sort gate): high polyreactivity

## QVQLVESGGGLVQAGGSLRLSCAASGLTFGSKAMGWYRQAPGKERELLAAISWNGGSTSYADSVKGRFTISRDNAKHTVYLQMNSLKPEDTAVNYCAADYFDSSYQPTDSILYEYWGQGTQVTVSS
  polyreactivity (PSR sort gate): low polyreactivity

## QVQLVESGGGLVQAGGSLRLSCAASGRIFVGYAMGWYRQAPGKERELVAAITGSGGGTYYADSVKGRFTISRDNAKNTVYLQMNSLKPEDTAVYYCNARYRSYYVTQRLDYWGQGTQVTVSS
  polyreactivity (PSR sort gate): high polyreactivity

## QVQLVESGGRLVQAVGSLRLRCAPSGNTFPVYAMGWYRQASGKERELVATITSGGSTNYADSVKGRFTISRDNAKNTVYLQMNSLKPEDTAVYYCARRAVYSKRRYDYWGQGTQVTVSS
  polyreactivity (PSR sort gate): low polyreactivity

## QDQLVESGGGLVQAGGSLRLSCAASGIILPRYAMGWYRQAPGKERELVAAISRGGGTYYADSVKGRFTISRDNAKNSVYLQMNSLKPEDTAFYYCDAAYVFVGSSHYYWGQGTQVTVSS
  polyreactivity (PSR sort gate): high polyreactivity

## QVQHVESGGGIVQAGGSLRLSCAASGSIFYQYAMGWYRQSPGKERELVAASSRSGGSTYYADSVKGRFTISRHNAKNTVYLQMNSLKPEDTAVYYCAARAVRAAYDYWGQGTQVTVSS
  polyreactivity (PSR sort gate): low polyreactivity

## QVLLVESGGGLVQAGGSLRLICDDSGFIFTYYAMGLYRQAPVTEREFVAAIRASGGSTYYSYSVKGRFTISRDKAQNTVYLQMNSLKPEETAVYYCAARYRQRLRSTSYDYWGQGTQVTVSS
  polyreactivity (PSR sort gate): high polyreactivity

## QVQLVESGGGIVQAGGSLRLSCAASGRIFQLYGMGWYRQAPGKERECVAAISYGGGSTYYADSVKGRFTISRDIAKNTVYFKMNSLKPEDTAVYYCAAERRFYSLAKYQSMDYWGQGTQVTVSS
  polyreactivity (PSR sort gate): low polyreactivity

## QVQLVESGGGLVQAGGSLRLSCAASGLIFKFYAMGWYRQAPGKERELVARISSCGGSTYYADSVKGRFTMSRDNAKNTVYLQMNSLKPEDTAVYYCAAGDYYGDRYARSSIFSYYYWGQGTQVTVSS
  polyreactivity (PSR sort gate): high polyreactivity

## QVQLVESGGGLVQAGGSLRLSCAASGRIFLYYAMGWYRQAPGKERELVAAITSSGGGTYYADSVKGRFTISRDNAKNTVYLQMNSLKPLDTAVYYCAARRRSQWRYYYWGQGTQVTVSS
  polyreactivity (PSR sort gate): high polyreactivity

## QVQLVESGGGLVQARGSLRLTCAASGSTFSENAMGWYRQAPGKERELVAAISRGGGRTYYADSVKGRFTISRDNAKNTVYLQMNSLKPEDTAVYYCNAGLPAGNHGYDYWGQGTQVTVSS
  polyreactivity (PSR sort gate): high polyreactivity

## QVQLVESGGGLVQAGGSLRLSCAASGFTFANYVMGWSRQAPGKERELVAAITTPGGSTSYADSVKGRFTISRDNAKNTVYLQMNSLKPEDTAVYYCNKTTYYPSDYDYWGQGTQETVSS
  polyreactivity (PSR sort gate): low polyreactivity

## QVQLVESGGGLVQAGVSLRLSCAASGRTFRFYAMGWYRQAPGKERELVAAITGSGGSTYYADSVKGRFTISRDNAKNTVYLQMNCLKPEDTAVYYCAASRWREYHASKMDYWGQGTQVTVSS
  polyreactivity (PSR sort gate): low polyreactivity

## QVQLVESGGGLVQAGGSLRLSCAASGITFIVKTMGWYRQAPGKEREFVATISANSDGTYYADSVKGRFTISRDNAKNTVYLQMNSLKPEDTAVYYWGQGTQVTVSS
  polyreactivity (PSR sort gate): low polyreactivity

## QVQLVESGGGLVQAGGSLRLSCAASGRTFSPYAMGWYRQAPGKERELVAAITSRGASTYYADSVKGRFTISRDNAKNTVYLQMNSLKPEDTAVYYWNSGRTYRRLGDYWGQGTQVTVSS
  polyreactivity (PSR sort gate): high polyreactivity

## QVQLVESAGGLVQAGGRLRLSCAAYGFTFNKYAMGWSRQAPGKEREVVAYISSGDRTYYADSVKGRFTISRDNAKNTVYLQMNSLKPEDTAVYYCNAPYRIILENNNYWGHGTQVTVSS
  polyreactivity (PSR sort gate): high polyreactivity

## QVQLVESGGGLVQAGGSLRLTCAASGFIFRKYTMGWYRQAPGKERELVATLDSSGGSTYYADSVKGRFTISRDNAKNTVYLQMNSLKPEDTAVYYCNADLRELSPWYWYSGEMDYWGQGTQVTVSS
  polyreactivity (PSR sort gate): low polyreactivity

## QVQLVESGGGIVQAGGSLRLLCAASGSIFLTNAMGWYRQAPGKERQFVAAIDWGGTITYYADSVKGRFTISRDNAKNNVYLQMNSLKPEDTAVYYCAADGYIRQYVTYYYWGQGTQVTVSS
  polyreactivity (PSR sort gate): low polyreactivity

## QVQLVESGGGLVQAGGSLRLSCAASGRTFWYYTMGWYRQAPGKERELVASITSGSGTTYYADSVKGRFTISRDNAKNTVYLQMNSLKPEDTAVSSCAAKNTPSFFYYDRYDYWGQGTQVTVSS
  polyreactivity (PSR sort gate): low polyreactivity

## QVQLVESGGGLVQAGGSLRLSCAASGRIFQRYVMGWYRQAPGKERELVASISWRGGSTYYADSVKGRFTISRDNAKNTVYLQMNSLKPEDTAVYYCAARRYTDYVRVAREMDYWGQGTQVSVSS
  polyreactivity (PSR sort gate): high polyreactivity

## QVQLVESGGGLVQAGGSLRLSCAASGGLFTLNAMGWYRQAPGKEREMVAGISWSGDRTYYADSVKGRFTISRDNAKNTVYLQMNSLKPEDTAVYYCAAYDYWGQGTQVTVSS
  polyreactivity (PSR sort gate): low polyreactivity

## QVQLVESGGGLVQAGGSLRLSCAASGIIFYFYARGWYRQAPGKETELVAANSRGGSTKYADSVKGRFTISRDNAKNTVYLLMYSLKPEDTAFYYCNARVRGVRQGIMDYWGQGTQVSVSS
  polyreactivity (PSR sort gate): high polyreactivity

## QVQLVESGGGLVQAGGSLRLSCAASGSTFGRYAMGWYRQAPGKERELFAAISWSGGSTYYADSVKGRFTISRDNAKNTVYLQMNSLKPEDTAVYYCNKAGIYIYGSYYWGQGTQVTVSS
  polyreactivity (PSR sort gate): high polyreactivity

## QVQLVESGGGLVQAGGSLRLSCAASGSIFYRNAMGCYIQAPGKERELVAAITSSGVSTYYADSVKGRFTISRDNAKNTVYLQMNSLKPEDTAVYYCAARSVYTGRPYYYWGQGTQVTVSS
  polyreactivity (PSR sort gate): high polyreactivity

## QVQLVESGGGLVQAGGSLRLSCAASGSTFTKYAMGWYRQAPGKERELVAAISRSGGGTYYADSVKGRFTISRDNAKNTVYLQMNILKPEDTAVYYCNAALFRGAQFDYWGQGTQVTVSS
  polyreactivity (PSR sort gate): high polyreactivity

## QVQLVESGGGLVQAGGSLRLSCAASGSIISPNAMGWYRQAPGKERELVATISFSGGRTYYADSVKGLVTISRDNAKNTVYLQMNSLKPEDTAVYYCAKAYYYTDMDYWGQGTQVTVSS
  polyreactivity (PSR sort gate): low polyreactivity

## QVQLVESGGGLVQAGGSLRLSCAASGFIFSRNAMGWYRQAPGKERELVAAISLRGGSTYYADSVKGRFTISRDNAKNTVYLQMNSLKPEDTAVYYCAADSVLTPYDYWVQGTQVTVSS
  polyreactivity (PSR sort gate): low polyreactivity

## QVQLVESGGGLVQAGGSLRLSCAASGYTFHYNTMGGYRQAPGKERELVATISDGGSTNYADSVKGRFTISRDNAKNTVYLQMNSLKPEDTAVYYCAALYQQFQSALVPYFDVIEEDYWGQGTQVTVSS
  polyreactivity (PSR sort gate): low polyreactivity

## QVQLVESGGGLVQAGGSLRLSCAASGIIFPYYAMGWSRQGPGKERELVAGISSSGGITYADSVKGRFTISRDNAKYTVYLQMNSLKPEDTAVYYCNAEYQWLEYDYWGQGTQVTVSS
  polyreactivity (PSR sort gate): low polyreactivity

## QVQLVESGGGLVQAGGSLRLSCAASGSIFGVYTMGWYRQAPGKERELVAAISGSGGSTYYADSVKGRFTISRDNAKNTVYLQMNSLKPEDTAVYYCATRFPKIPPYDSWGQGTQVTVSS
  polyreactivity (PSR sort gate): low polyreactivity

## QVLVVESGGCLVQAVGSLRLSCAAYGITCSRNALGWYRLAAGKERELVATITSGGSTNYADSVKGRFTISRDNAKNTVYLQMMSLKPEDPAVYFCNAVWNTFISGRSYDYWGQVTQVTVSS
  polyreactivity (PSR sort gate): low polyreactivity

## QVQLVESGGGLVQAGGSLRLSCTASGSIFVTNAMGWYRQAPGKERELVAAITWGGGNTTYADSVKGRFTISRDNAKNTVDLQMNSLKPEDTAVYYCAKDPYVNRDYWGQGTQVTVSS
  polyreactivity (PSR sort gate): low polyreactivity

## QVQLVESGGGLVQAGGSLRLSCAASGYTFTGYAMGGYRQAPGKERELFATITRGGSTYYADSVKGRFTISRDNAKNTVYLPMNSLKPEDTAVYYCATRVQYYVKSTTQYGYGYWGQGTQVTVSS
  polyreactivity (PSR sort gate): low polyreactivity

## QVQLVESGGGLVQAGGSLRLSCAASGSIFWQNAMGWYRQAPGKERELVAAISRNGGSTNYADSVKGRFTISRDNAKNTVYLQMNSLKPEDTAVYYCAAVGTVSRTVGYNYWGQGTQVTVSS
  polyreactivity (PSR sort gate): high polyreactivity

## QVQLVESGGGLVQAGGSLRLSCAASGRIIGNYAMGWYRPAPGKERELVARISQSGGSTYYADSVKGRFTISRDHAKNSLYLQMNSLKPEDTAVYYCAKRGRYRYDRDNRYEYWGQGTQVNVSS
  polyreactivity (PSR sort gate): low polyreactivity

## QVQLVESGGGLVQAGGSLRLSCAASGSTFRYYSMGWYRQAPGKERELVAVISKSGARTYYADSVKGRFTISRDNAKNTVYLQMNSLQPEETSVYYCNAVFKLDSHYAMCYWGQGTQVTVSS
  polyreactivity (PSR sort gate): high polyreactivity

## QVQLVESGGGLVQAGGSLRLSCAASGFTFRYYAMGWYRQAPGKERELVAAITSRGGSTYYADSVKGRFTISRDNAKNTVYLQMNSLKPEDTAVYYCAAETWRPSPYSRVSTYDYWGQGTQVTVSS
  polyreactivity (PSR sort gate): high polyreactivity

## QVQLVESGGGLVQAGGSLRLSCAASGRIFTYNAMGWYRQAPGKERELDATITWRGGGTYYADSVKGRFTISRDNAKNTVYLQMNSLKPEDTAVYYCNRRLPGDGQYGYRRYDYWGQGTQVTVSS
  polyreactivity (PSR sort gate): low polyreactivity

## QDQLVESGGGLVQAGGSLRLSCAASGFTFGYYPMGWSRQAPGKERELVAAITSSGGRTYYADSVKGRFTISRDYGKNTVYLQMNSLKPEDTAVYYCATAYRPDYGYWGQGTQVTRSS
  polyreactivity (PSR sort gate): high polyreactivity
